Here are results for two molecules from PMC6205948, “Phage-Borne Depolymerases Decrease Klebsiella pneumoniae Resistance to Innate Defense Mechanisms” (Frontiers in Microbiology, 2018).

In data set [1] the target is KP32gp37 (Klebsiella phage KP32) (UniProt D1L2X0). Description: SEC-MALS; purified protein in solution, native conditions; SEC coupled to a miniDAWN TREOS MALS detector and Optilab rEX; proteins dialyzed against PBS pH 7.4. For orientation: Size exclusion chromatography separates by hydrodynamic size, large species first.
Data set [2] deals with the molecule itself. The data set is described as above.

In the case of “KP32gp37 (from UniProt D1L2X0 1-869) (enzyme)”, the stoichiometry N (in general, a count of units in the complex or per binding partner) in data set [1] was 3.

B1: KP32gp38 (enzyme, Klebsiella phage KP32, UniProt D1L2X1 1-576, looked up)
chain: MLDNFNQPKGSTIGVLKDGRTIQEAFDSLPRLESFSGSTATDKLRAAITLGVSEVAIGPVEGNGGRPYEFGDVVIPYPLRIVGCGSQGINVTKGTVLKRSAGASFMFHFTGEGQAQRPMGGGLFNINLNGDTATALGDIIKVTQWSYFKANNCAFQNMAGWGIRLKDVMESNISGNLFRRLGGPSGGGILFDDVRSAVTDNVNNLHIEDNTFALMSGPWIGSTANSNPDLIWIVRNKFEFDGTPAAPNTVDSYVLDFQQLSRAFIQDNGFTHFTTERNRYVGVLRVGATAVGTIKFEDNLLFACESAGLIAGGIVVSRGNVNNQGSATTAIKQFTNTSSKLCKLERVINVQSNGNVSVGQQILPDGYINMAELPGNTRLPSEYDADGETTSVLRVPANTQVRQWSVPKMYKDGLTVTKVTVRAKGAAAGAILSLQSGSTVLSTKSIDAGVWKNYVFYVKANQLQETLQLRNTGTADVLADGMVFGKVDYIDWDFAIAPGTLAAGAKYTTPNQSYLDVAGMRVQAVSIPMFDGPTTGLQVWVEATSANGSFVVVMKNDTGSELVTTVTRCRVRAFVS
notes: open reading frame cloned into pEXP5-CT/TOPO; runs at about 62 kDa on SDS-PAGE; The vector pEXP5-CT/TOPO adds a C-terminal His6 tag (surmised from the vector's name); also called hypothetical protein; K21 depolymerase
With B1, the “stoichiometry N” value in data set [2] came to 3.
